Experimental data published in publication PMC11982978, “Cancer hotspot mutations rewire ERK2 specificity by selective exclusion of docking interactions” (The Journal of Biological Chemistry, 2025).
Square brackets hold non-standard residues; d marks the D form. Ends that are not written are not given here.

B1: ISG20 D-peptide WT (competitive kinase assay form, with N-terminal Tyr-Ala) (peptide)
peptide: YAIRARRGLPRLAVSD
modifications: not fully specified
notes: ISG20, human, residues 168-181; also called ISG20^WT; ISG20 peptide WT; source: synthetic peptide (GenScript)
B2: ISG20 D-peptide G6Q (peptide)
peptide: [dY][dA][dI][dR][dA][dR][dR][dQ][dL][dP][dR][dL][dA][dV][dS][dD]
notes: ISG20, human, residues 168-181 with the change; numbers count on: the 14-mer peptide (position 1 = Ile168); also called ISG20^G6Q; source: synthetic peptide (GenScript)
B3: ISG20 D-peptide I1N (peptide)
peptide: YANRARRGLPRLAVSD
modifications: not fully specified (some residues)
notes: ISG20, human, residues 168-181 with the change; numbers count on: the 14-mer peptide (position 1 = Ile168); also called ISG20^I1N; source: synthetic peptide (GenScript)
B4: ISG20 D-peptide I1R/R2I (peptide)
peptide: YARIARRGLPRLAVSD
modifications: not fully specified (some residues)
notes: ISG20, human, residues 168-181 with the changes; numbers count on: the 14-mer peptide (position 1 = Ile168); also called ISG20^I1R/R2I; source: synthetic peptide (GenScript)

Molecular target: T1, Active phosphorylated His6-tagged ERK2 WT (rat (p-0033 says mouse), UniProt P63086 3-358, phosphorylated (active form; sites not given))
T1 construct: ERK2 (MAPK1); rat numbering; Same plasmid as the crystallised protein m9, but phosphorylated; also called WT ERK2; His6-ERK2; source: E. coli BL21(DE3), co-expressed with GST-MEK1ΔN3, purified (Talon resin)
Assay: competitive peptide kinase assay; D-peptide titrated as competitive inhibitor of 10 nM ERK2 on 5 μM D-site dependent reporter peptide (AQT0376), 10 μM ATP; 54 mM HEPES pH 7.4, 1.2 mM DTT, 0.01% Brij-35, 1% glycerol, 0.2 mg/ml BSA, 10 mM MgCl2; fluorescence read-out; IC50 as relative binding affinity
Conditions: both partners purified

| Binder | IC50 |
| --- | --- |
| B1 | 5.4 µM |
| B2 | 41 µM |
| B3 | 190 µM |
| B4 | 200 µM |
